Results reported in the supplement of paper PMC10126150.
± gives the standard deviation of the averaged measurements.

Tested on: ATP
Assay: switch fluorescence ratio, 500 uM ATP over buffer (Cy3 cluster intensity, sum of 5 cycles each) (fold (ratio)); higher = stronger signal-on switching upon ATP binding; sequences stand for … in TCGTCGGCAGCGTCAGATGTGTATAAGAGACAGTTTTTTTTTTTTTTTTTTTTTTTTT…TC
Conditions: aptamer strand: ATP DNA aptamer (quencher-CACCTGGGGGAGTATTGCGGAGGAAGG + anchor), 100 nM annealed; ATP concentration: 500 uM
How it was run: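 Values give the fluorescence ratio for each switch-domain sequence, averaged from per-cluster ratios of summed target-cycle to summed buffer-cycle Cy3 intensity. The Cy3-labelled switching-strand clusters sat on a modified Illumina MiSeq flow-cell, were annealed to 100 nM quencher-labelled ATP aptamer, and were imaged in selection buffer, then after 15 min with 500 uM ATP at 22 °C. Five cycles ran with NaOH stripping and re-annealing between them, and clusters outside 100-1000 RFU were excluded.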
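Note: ATP exposure 15 min at 22 °C before imaging.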

Row | Sequence | switch fluorescence ratio
1 | TTAATGATTA | 0.994 ± 0.034
2 | TTATTTGGGG | 1.01 ± 0.056
3 | CGCTGTTGGT | 0.9997 ± 0.0098
4 | AGGGAATTTG | 1.014 ± 0.0021
5 | CATGCGTCGA | 1.044 ± 0.0035
6 | GAATGGCACG | 1.003 ± 0.008
7 | CTGCGTCTTT | 1.03 ± 0.015
8 | TCGGGGTTGG | 0.978 ± 0.029
9 | TCCTTTATAC | 3.09 ± 0.71
10 | TTGTTTAGGA | 0.9763 ± 0.0012
11 | TTTCTCAGTC | 1 ± 0.039
12 | GAGAGTAATT | 1.01 ± 0.051
13 | TGCTATGGGG | 1 ± 0.016
14 | AGTTTGGGGA | 0.979 ± 0.015
15 | TTAGTAATAT | 1.17 ± 0.12
16 | TTACCCTTGG | 1.17 ± 0.05
17 | ATAAGGCAGG | 0.999 ± 0.024
18 | ATGCGACGGC | 1.05 ± 0.028
19 | TCAGCAATCG | 2.57 ± 0.026
20 | CGAGCGGAAG | 1.03 ± 0.032
21 | GGTTAAGGCC | 1.033 ± 0.007
22 | TCGATCTTTT | 1.24 ± 0.4
23 | ACATGACATG | 1.04 ± 0.03

Row | Sequence | switch fluorescence ratio
24 | GGGAATACAT | 1.01 ± 0.028
25 | AGAGGTACAC | 1 ± 0.021
26 | ATCAAAGGTG | 1.404 ± 0.0027
27 | ATGTGGCTAG | 1.01 ± 0.032
28 | ACTGGAGGTG | 1.067 ± 0.0038
29 | AACTTCTGCC | 1.025 ± 0.0013
30 | TCACGGGGGA | 1.03 ± 0.039
31 | AAATTTTTAC | 1.02 ± 0.027
32 | TAGGGCCAAC | 1.016 ± 0.0092
33 | TCAAATAGCG | 1.031 ± 0.0032
34 | AATAAGATTT | 1.02 ± 0.026
35 | GTTTTTTAGC | 0.991 ± 0.069
36 | TGGACGTGTC | 1 ± 0.019
37 | TTGAGGGATC | 1.01 ± 0.06
38 | ATTTGCTGTG | 0.9916 ± 0.0062
39 | ACTCCAATGG | 1.85 ± 0.12
40 | GCTATTAGTG | 0.9892 ± 0.0051
41 | AGCAGGGACT | 1.051 ± 0.0077
42 | TTTGGTTACA | 1.01 ± 0.04
43 | TACAGGCGCT | 0.994 ± 0.015
44 | CGGCATCGAA | 0.985 ± 0.036
45 | AAGGTAGTCT | 1 ± 0.024
46 | TGGGGGTCGT | 1.02 ± 0.024

Row | Sequence | switch fluorescence ratio
47 | GGAAATGTTG | 0.991 ± 0.041
48 | AGAGAAGACC | 1 ± 0.028
49 | TACAATTGAA | 1 ± 0.025
50 | TGGAAAGAAG | 1.02 ± 0.064
51 | TATAAGGGTT | 1.01 ± 0.017
52 | TTTCTGTTTG | 1.01 ± 0.05
53 | GCAGAGGGTG | 1.13 ± 0.086
54 | CGAATGTTGG | 0.99 ± 0.041
55 | GGGGATGTCT | 1.03 ± 0.03
56 | CGATCCCGGG | 1.07 ± 0.11
57 | GTTTATAGAG | 1.01 ± 0.039
58 | GGGGAGAGGT | 1 ± 0.067
59 | GCTGTGGTAC | 1.188 ± 0.0086
60 | CTTAGAATGA | 0.979 ± 0.025
61 | AGTGGTTCGC | 1.01 ± 0.024
62 | TAAGTATAGT | 1.0211 ± 0.00015
63 | ACCAACCGTG | 1.1028 ± 0.00051
64 | TTGAGGTGCG | 1.01 ± 0.026
65 | GCATCACGAG | 1.08 ± 0.03
66 | TTACTGGATA | 0.987 ± 0.046
67 | ATTGCGTTGG | 0.996 ± 0.013
68 | ACCTTCTTTT | 1.11 ± 0.11
69 | GGTGGGATTT | 0.9506 ± 0.0055

Row | Sequence | switch fluorescence ratio
70 | ATTCGGTCAT | 1 ± 0.015
71 | TTAACTGCAC | 1.44 ± 0.056
72 | CTTTTTGTGG | 0.9838 ± 0.0075
73 | GCAGGGCGCC | 1.01 ± 0.026
74 | CTTGGACGGG | 0.9706 ± 0.0021
75 | TAGAGGATGC | 0.998 ± 0.07
76 | TTTTGAAGGT | 0.997 ± 0.0099
77 | GGGGACGTCG | 0.9972 ± 0.0087
78 | TTATGTTCGC | 0.975 ± 0.034
79 | ACTGAGGATA | 1 ± 0.037
80 | GACCGATGGG | 1.01 ± 0.013
81 | ACGGGGCATT | 1 ± 0.043
82 | CCAAGTTGTG | 1.03 ± 0.074
83 | AGGGGACGAT | 0.9887 ± 0.0056
84 | TTTCCTTTT | 1.014 ± 0.0083
85 | TTTTTTTGCG | 1.02 ± 0.069
86 | CCGATAGGGG | 1.05 ± 0.093
87 | CGTACATGT | 1.02 ± 0.024
88 | TTATATACAG | 1.058 ± 0.0062
89 | GTCAGGTCTT | 0.975 ± 0.021
90 | TTAGTGTAAT | 1.01 ± 0.025
91 | GATATTTCGT | 0.9768 ± 0.0034
92 | CCATAGCTCA | 2.016 ± 0.016

Row | Sequence | switch fluorescence ratio
93 | CTGGAAATGG | 1.033 ± 0.0095
94 | AAAACGTATA | 1.07 ± 0.039
95 | CGTGGATGTT | 0.9831 ± 0.0034
96 | AGGCCTGCGG | 1.05 ± 0.033
97 | AGGTAGGGGT | 1.01 ± 0.02
98 | TAGTTGTTCC | 1.07 ± 0.07
99 | ATTTATGGAT | 1 ± 0.023
100 | TTTTCGGGCA | 0.99223 ± 4.3e-05
101 | GCCGCCCTGG | 1.056 ± 0.0076
102 | GAAGGGGTCC | 1 ± 0.042
103 | CCTGGATGTA | 1.02 ± 0.025
104 | GGGCACCAGG | 1.21 ± 0.03
105 | CATCGATTGC | 1.03 ± 0.013
106 | AGGGTTGAAC | 1 ± 0.023
107 | TTATCGAGTT | 1.03 ± 0.015
108 | TCAATGCGAT | 1.33 ± 0.19
109 | ACTGTTTTGA | 0.962 ± 0.01
110 | TTAGGGTCT | 1.01 ± 0.022
111 | GACATGGGTT | 0.983 ± 0.015
112 | TCTCTGTCTC | 1.12 ± 0.097
113 | CGTGGGTCCA | 1.024 ± 0.01
114 | TGTTATAGAT | 0.987 ± 0.025
115 | GGGTTCAGTG | 0.982 ± 0.026

Row | Sequence | switch fluorescence ratio
116 | GCAGGCCTGA | 1.01 ± 0.029
117 | TTTAAACCGG | 1.02 ± 0.016
118 | GCGGTTTGAC | 1.03 ± 0.018
119 | TAAGGGTGA | 1.03 ± 0.015
120 | ATCGCGGGTT | 0.99 ± 0.05
121 | AATTATAATG | 1.034 ± 0.0047
122 | TGTTTTAGTG | 0.994 ± 0.021
123 | GAGGGGCGGT | 1.02 ± 0.026
124 | GAGTATCTAG | 0.986 ± 0.038
125 | TATCCCTGTT | 0.976 ± 0.013
126 | TTGGGGGCGG | 1.01 ± 0.015
127 | TTCTACTTTG | 1.035 ± 0.0074
128 | AACGGGGAAC | 0.986 ± 0.014
129 | ATTGTGGAGA | 1.03 ± 0.032
130 | TTTATCTTCC | 2.41 ± 0.065
131 | GGGGTACGTA | 1 ± 0.08
132 | TTGCTTAGTT | 1.002 ± 0.0071
133 | CATTATGCTT | 0.9864 ± 0.0014
134 | CACGAGGGGA | 1.02 ± 0.057
135 | TAGGGAAAGA | 1 ± 0.014
136 | TGCAGGTTAC | 1.12 ± 0.015
137 | TTAATTAAAA | 0.962 ± 0.043
138 | GGTATTGCGT | 0.977 ± 0.042

Row | Sequence | switch fluorescence ratio
139 | TATGTTTAAA | 0.9922 ± 0.0042
140 | ATGTTGGGGA | 0.996 ± 0.019
141 | ATAGTTGGA | 0.953 ± 0.019
142 | CATTCGGATG | 1.01 ± 0.055
143 | AACCAGGGGG | 1.058 ± 0.0084
144 | TTACATTT | 1.02 ± 0.017
145 | TCGGAATCAA | 1.127 ± 0.0071
146 | AGGGAGGAGT | 0.988 ± 0.026
147 | GCTGTTTACT | 1 ± 0.012
148 | TAAAAACTGG | 0.975 ± 0.045
149 | TGCCGTTCTT | 1 ± 0.021
150 | GACTATGAGA | 0.9936 ± 0.0039
151 | CTGGGGTAAT | 1.028 ± 0.0095
152 | TTACTGGGTT | 1 ± 0.084
153 | CGGGGTTGCT | 1.03 ± 0.054
154 | CGGGGTTGTC | 0.966 ± 0.069
155 | ATGCATAGTT | 0.963 ± 0.017
156 | TTTTAGGGTC | 1.11 ± 0.2
157 | TTCGGCTGCA | 1.08 ± 0.064
